Data as given in the RNAGym collection of RNA variant scans (doi:10.7554/elife.80360).

B1: HDV Ribozyme (parent)
chain: GGCCGGCAUGGUCCCAGCCUCCUCGCUGGCGCCGGCUGGGCAACAUUCCGAGGGGACCGUCCCCUCGGUAAUGGCGAAUGGGACCCA

Variants of: B1
Assay: self-cleavage, relative activity (ratio to wild type); higher = more cleavage; co-transcriptional

In order of falling self-cleavage:
1. U9A G59U  1.41
2. A8G C26G  1.36
3. U9A C48G  1.31
4. U9C A70G  1.25
5. U9A C63A  1.25
6. C7U C57G  1.2
7. U9A A16U  1.19
8. U9A C57G  1.18
9. U9C C26U  1.17
10. A8G G50C  1.17
11. U9A G52C  1.16
12. A8G A51G  1.16
13. U9A C61A  1.16
14. U9A A56C  1.16
15. C7U C84A  1.14
16. A8U C48U  1.13
17. U9A C85G  1.13
18. U9A C26U  1.12
19. U9A U23A  1.12
20. A8C C26G  1.11
21. U9A C66G  1.1
22. A8U C85U  1.09
23. U9A G55A  1.09
24. U9A C86U  1.09
25. U9A U47A  1.09
26. U9A U46G  1.08
27. A8G U47C  1.07
28. U9A U65C  1.07
29. A8G G68C  1.06
30. U9A U69G  1.06
31. U9C A87U  1.06
32. U9C A51U  1.06
33. A8G U47A  1.05
34. U9C C24U  1.05
35. U9C A77G  1.05
36. U9A C64A  1.04
37. A8U G55C  1.04
38. A8G C61G  1.04
39. A8G G50A  1.03
40. A8G G53C  1.03
41. A8G C62A  1.03
42. U9A C36U  1.02
43. U9A U60C  1.02
44. A8C C86G  1.02
45. A8U G53C  1.01
46. C7U G54U  1
47. U9C A71G  0.997
48. C7U U9G  0.997
49. U9A C18U  0.991
50. U9A G53C  0.974
51. C7U C49A  0.974
52. A8U A70G  0.969
53. A8U A16U  0.962
54. A8U C85A  0.959
55. A8C G52C  0.957
56. U9C A45C  0.957
57. A8G U60A  0.95
58. A8U G76A  0.95
59. A8C G10A  0.95
60. A8U C84A  0.95
61. U9A A56G  0.95
62. C7U C64A  0.923
63. U9A A51C  0.923
64. U9A A70G  0.918
65. C7U C63U  0.918
66. A8G U65G  0.906
67. U9A G17A  0.906
68. A8U C66U  0.906
69. A8G G54U  0.906
70. A8U U27G  0.906
71. U9A C85A  0.902
72. A8C C49A  0.9
73. U9A U60G  0.9
74. U9A U27A  0.9
75. A8U U65C  0.895
76. A8C C57U  0.895
77. C7U G54C  0.884
78. A8U C85G  0.883
79. C7U C58A  0.88
80. A8C U27A  0.867
81. U9C C24A  0.864
82. C7U U9A  0.86
83. U9A G52U  0.858
84. A8U C64G  0.856
85. C7U U69C  0.853
86. A8C C63A  0.852
87. A8C G53A  0.846
88. A8U A87C  0.845
89. U9A U46C  0.831
90. A8G A56U  0.831
91. A8C A16G  0.831
92. A8U U47G  0.831
93. A8C A51U  0.831
94. A8G G76U  0.831
95. A8C C58U  0.831
96. A8C G17A  0.831
97. A8C C66A  0.831
98. C7U A8U  0.831
99. A8C G53U  0.831
100. A8C A87C  0.805
101. A8C G59U  0.804
102. A8U U23A  0.804
103. A8U C66G  0.8
104. C7U G59A  0.8
105. A8C C41A  0.798
106. A8C U47G  0.795
107. U9A U27C  0.795
108. C7U G50A  0.786
109. A8G U47G  0.782
110. A8C A70G  0.782
111. A8G C57A  0.779
112. A8C C61G  0.772
113. C7U C62A  0.764
114. C7U G68U  0.764
115. U9C A43G  0.755
116. A8U A87G  0.754
117. U9A C84U  0.749
118. C7U C61G  0.743
119. A8U G50A  0.739
120. C7U A56U  0.739
121. U9A U72A  0.712
122. A8U G76U  0.707
123. A8C G76C  0.705
124. A8C A56C  0.692
125. U9A A42U  0.688
126. U9C C36U  0.682
127. C7U U60A  0.682
128. A8G C85A  0.68
129. C7U G52A  0.68
130. C7U U46G  0.68
131. A8G C44A  0.665
132. A8G G67C  0.665
133. A8G G10C  0.665
134. C7U C66U  0.665
135. A8G G55A  0.655
136. U9A C14A  0.65
137. A8C A83G  0.646
138. C7U A51C  0.643
139. U9C C30U  0.636
140. A8U A51C  0.633
141. A8C G10C  0.623
142. A8C A70U  0.623
143. A8C U23A  0.615
144. A8C A45G  0.615
145. A8G U23C  0.612
146. A8G C32U  0.609
147. A8U U46G  0.604
148. A8U A45U  0.587
149. A8U C58G  0.582
150. C7U A8G  0.582
151. A8G C41G  0.578
152. A8U G39U  0.571
153. A8C C63G  0.554
154. A8G G17U  0.554
155. A8U G54C  0.538
156. C7U C84G  0.527
157. A8U U79A  0.525
158. A8G A70C  0.519
159. A8U G68A  0.511
160. A8U C41G  0.506
161. A8U C84U  0.506
162. A8G C44G  0.499
163. C7G C58U  0.492
164. U9A G74A  0.491
165. U9C C33A  0.489
166. A8U A45G  0.489
167. C7U U65A  0.475
168. A8G C44U  0.475
169. U9C A83C  0.475
170. C7U C44G  0.464
171. A8C C41G  0.457
172. A8U A43C  0.453
173. U9A A43C  0.447
174. A8G G73C  0.437
175. C7G C57A  0.434
176. A8C C22U  0.426
177. C7G C86A  0.426
178. C7U G10A  0.425
179. A8C G10U  0.415
180. A8U G31A  0.405
181. C7U C36U  0.399
182. U9A G81A  0.396
183. C7U C32U  0.394
184. C7U C22U  0.394
185. U9A G34C  0.375
186. C7U C44U  0.374
187. U9A C36G  0.369
188. U9A C18G  0.369
189. A8G C22U  0.361
190. A8C A77U  0.356
191. C7U G81A  0.352
192. C7U U12A  0.35
193. A8G G25U  0.35
194. A8C G40U  0.345
195. U9A G82C  0.332
196. C7U C13U  0.332
197. A8G G35A  0.332
198. A8G U79G  0.332
199. A8C A77C  0.317
200. A8C G74A  0.314
201. U9A G11U  0.312
202. C7G G55A  0.302
203. A8G C18U  0.297
204. C7G U69G  0.293
205. U9A U12C  0.289
206. A8U U79G  0.289
207. C7G U69C  0.277
208. A8G A77C  0.277
209. C7U G10C  0.266
210. A8U G35U  0.262
211. C7G C48U  0.262
212. A8U A83U  0.26
213. C7G G53U  0.26
214. C7G G53A  0.26
215. A8G G81U  0.256
216. C7G U27G  0.256
217. A8C G73A  0.256
218. A8C G40C  0.242
219. A8U G34A  0.242
220. C7G G35C  0.237
221. C7U U12C  0.237
222. C7G C66U  0.231
223. C7G G52C  0.229
224. A8U U12C  0.227
225. C7U G82C  0.227
226. C7U C41G  0.225
227. C7G G10C  0.222
228. A8C U46A  0.217
229. C7G U27A  0.217
230. C7G C66G  0.214
231. A8C G31U  0.214
232. C7U G25A  0.212
233. U9C C14G  0.208
234. A8C C84G  0.208
235. C7U G74A  0.204
236. A8C C15A  0.199
237. C7G C33A  0.196
238. C7U A42U  0.196
239. A8U C14A  0.192
240. C7U U37G  0.19
241. C7U G81U  0.187
242. A8G G28U  0.185
243. A8C U72C  0.185
244. C7U A42C  0.18
245. U9C C36A  0.178
246. A8C G25A  0.172
247. A8C G11U  0.17
248. A8U U20G  0.166
249. C7G G35A  0.156
250. A8G G80A  0.148
251. C7G C75G  0.145
252. U9A C75U  0.145
253. A8U C75G  0.142
254. A8C G35A  0.142
255. A8U G34U  0.142
256. C7G G50C  0.138
257. C7G G74A  0.138
258. A8C G25U  0.138
259. A8C C75U  0.128
260. A8U A78C  0.128
261. A8G A78G  0.128
262. A8G G82C  0.128
263. A8U A43U  0.125
264. A8U C32G  0.125
265. U9A C36A  0.122
266. A8C G31C  0.119
267. C7U G80U  0.117
268. A8C G82U  0.116
269. A8U G74A  0.115
270. A8G G81C  0.115
271. A8G G74U  0.111
272. C7G C84A  0.111
273. C7G C62G  0.111
274. U9A C13G  0.111
275. C7U G38U  0.109
276. U9A C18A  0.107
277. A8U C19G  0.106
278. U9C C15G  0.104
279. A8G C19U  0.104
280. A8U G11C  0.0978
281. A8C C33G  0.0923
282. C7U A78C  0.0923
283. A8C G38U  0.0875
284. A8G C18A  0.0875
285. C7G G73U  0.0831
286. C7U C24G  0.0739
287. C7U G28U  0.0712
288. C7U C32A  0.0707
289. A8U A42C  0.0692
290. U9A G25C  0.0615
291. A8C U20A  0.0615
292. C7G G29C  0.0615
293. A8C C21G  0.0594
294. A8G A42C  0.0573
295. A8G C32G  0.0573
296. U9A C75A  0.0573
297. C7G G67C  0.0573
298. U9C C24G  0.0536
299. U9A C22G  0.0519
300. C7U G38A  0.0496
301. U9A C32G  0.0489
302. A8G C22G  0.0489
303. C7G G74C  0.0475
304. A8C G34A  0.0475
305. A8G G35C  0.0426
306. A8G C21A  0.0415
307. A8U C24G  0.0405
308. A8G C36A  0.0386
309. A8U C30G  0.0369
310. A8U G28A  0.0369
311. C7U C32G  0.0361
312. C7U G34A  0.0302
313. A8U G25A  0
314. A8G G29U  0
315. U9C C32G  0
316. C7G U12G  0
317. C7U C13G  0
318. C7G U72C  0
319. A8C C24G  0
320. C7U C18A  0
321. A8G C14G  0
322. C7G C44A  0
323. C7G G11C  0
324. C7G G17C  0
325. C7G C32A  0
326. C7G G82U  0
327. C7G G25C  0
328. A8U G82A  0
329. C7G U47A  0
330. A8G U37G  0
331. C7G U46G  0
332. C7G C62A  0
333. A8U C32A  0
334. A8C G25C  0
